B1: Serine/threonine-protein kinase DCLK1 (Homo sapiens), O15075 (parent)
chain: MSFGRDMELEHFDERDKAQRYSRGSRVNGLPSPTHSAHCSFYRTRTLQTLSSEKKAKKVRFYRNGDRYFKGIVYAISPDRFRSFEALLADLTRTLSDNVNLPQGVRTIYTIDGLKKISSLDQLVEGESYVCGSIEPFKKLEYTKNVNPNWSVNVKTTSASRAVSSLATAKGSPSEVRENKDFIRPKLVTIIRSGVKPRKAVRILLNKKTAHSFEQVLTDITDAIKLDSGVVKRLYTLDGKQVMCLQDFFGDDDIFIACGPEKFRYQDDFLLDESECRVVKSTSYTKIASSSRRSTTKSPGPSRRSKSPASTSSVNGTPGSQLSTPRSGKSPSPSPTSPGSLRKQRSSQHGGSSTSLASTKVCSSMDENDGPGEEVSEEGFQIPATITERYKVGRTIGDGNFAVVKECVERSTAREYALKIIKKSKCRGKEHMIQNEVSILRRVKHPNIVLLIEEMDVPTELYLVMELVKGGDLFDAITSTNKYTERDASGMLYNLASAIKYLHSLNIVHRDIKPENLLVYEHQDGSKSLKLGDFGLATIVDGPLYTVCGTPTYVAPEIIAETGYGLKVDIWAAGVITYILLCGFPPFRGSGDDQEVLFDQILMGQVDFPSPYWDNVSDSAKELITMMLLVDVDQRFSAVQVLEHPWVNDDGLPENEHQLSVAGKIKKHFNTGPKPNSTAAGVSVIATTALDKERQVFRRRRNQDVRSRYKAQPAPPELNSESEDYSPSSSETVRSPNSPF
partner: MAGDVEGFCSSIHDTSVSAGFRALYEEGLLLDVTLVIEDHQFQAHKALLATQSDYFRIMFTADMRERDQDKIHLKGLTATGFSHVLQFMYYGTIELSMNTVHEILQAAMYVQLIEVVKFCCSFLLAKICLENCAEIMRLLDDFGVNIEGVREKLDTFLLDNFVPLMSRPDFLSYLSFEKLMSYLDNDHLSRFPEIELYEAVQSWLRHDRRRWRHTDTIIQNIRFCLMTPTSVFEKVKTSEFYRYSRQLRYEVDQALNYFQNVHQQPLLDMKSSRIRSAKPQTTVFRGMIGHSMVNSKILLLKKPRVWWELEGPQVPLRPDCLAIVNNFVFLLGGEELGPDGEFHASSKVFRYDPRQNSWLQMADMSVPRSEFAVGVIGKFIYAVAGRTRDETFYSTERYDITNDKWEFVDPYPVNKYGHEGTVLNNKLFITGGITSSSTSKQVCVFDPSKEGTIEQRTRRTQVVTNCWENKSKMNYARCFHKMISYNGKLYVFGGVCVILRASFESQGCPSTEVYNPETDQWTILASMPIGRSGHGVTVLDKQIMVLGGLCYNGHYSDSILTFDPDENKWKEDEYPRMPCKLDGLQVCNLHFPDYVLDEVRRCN
B2: Serine/threonine-protein kinase DCLK2 (Homo sapiens), Q8N568 (parent)
chain: MASTRSIELEHFEERDKRPRPGSRRGAPSSSGGSSSSGPKGNGLIPSPAHSAHCSFYRTRTLQALSSEKKAKKARFYRNGDRYFKGLVFAISSDRFRSFDALLIELTRSLSDNVNLPQGVRTIYTIDGSRKVTSLDELLEGESYVCASNEPFRKVDYTKNINPNWSVNIKGGTSRALAAASSVKSEVKESKDFIKPKLVTVIRSGVKPRKAVRILLNKKTAHSFEQVLTDITEAIKLDSGVVKRLCTLDGKQVTCLQDFFGDDDVFIACGPEKFRYAQDDFVLDHSECRVLKSSYSRSSAVKYSGSKSPGPSRRSKSPASVNGTPSSQLSTPKSTKSSSSSPTSPGSFRGLKQISAHGRSSSNVNGGPELDRCISPEGVNGNRCSESSTLLEKYKIGKVIGDGNFAVVKECIDRSTGKEFALKIIDKAKCCGKEHLIENEVSILRRVKHPNIIMLVEEMETATELFLVMELVKGGDLFDAITSSTKYTERDGSAMVYNLANALRYLHGLSIVHRDIKPENLLVCEYPDGTKSLKLGDFGLATVVEGPLYTVCGTPTYVAPEIIAETGYGLKVDIWAAGVITYILLCGFPPFRSENNLQEDLFDQILAGKLEFPAPYWDNITDSAKELISQMLQVNVEARCTAGQILSHPWVSDDASQENNMQAEVTGKLKQHFNNALPKQNSTTTGVSVIMNTALDKEGQIFCSKHCQDSGRPGMEPISPVPPSVEEIPVPGEAVPAPTPPESPTPHPPPAAPGGERAGTWRRHRD
partner: B1 partner
B3: Neuronal migration protein doublecortin (Mus musculus), O88809 (parent)
chain: MELDFGHFDERDKASRNMRGSRMNGLPSPTHSAHCSFYRTRTLQALSNEKKAKKVRFYRNGDRYFKGIVYAVSSDRFRSFDALLADLTRSLSDNINLPQGVRYIYTIDGSRKIGSMDELEEGESYVCSSDNFFKKVEYTKNVNPNWSVNVKTSANMKAPQSLASSNSAQARENKDFVRPKLVTIIRSGVKPRKAVRVLLNKKTAHSFEQVLTDITEAIKLETGVVKKLYTLDGKQVTCLHDFFGDDDVFIACGPEKFRYAQDDFSLDENECRVMKGNPSAAAGPKASPTPQKTSAKSPGPMRRSKSPADSGNDQDANGTSSSQLSTPKSKQSPISTPTSPGSLRKHKVDLYLPLSLDDSDSLGDSM
partner: B1 partner

Variants of: B1
Settings: with klh15_human KLHL15, Q96M94

Question: Which “effect of a mutation on the interaction” value does the source give for Y265L here?
Answer: Its value is “decreasing interaction”.

Variants of: B2
Settings: with klh15_human KLHL15, Q96M94

Question: Y276L was tested. Which “effect of a mutation on the interaction” value did it give?
Answer: The value was “decreasing interaction”.

Variants of: B3
Settings: with klh15_human KLHL15, Q96M94

Question: For MELDFGHFDERDKASRNMRGSRMNGLPSPTHSAHCSFYRTRTLQALSNEKKAKKVRFYRNGDRYFKGIVYAVSSDRFRSFDALLADLTRSLSDNINLPQGVRYIYTIDGSRKIGSMDELEEGESYVCSSDNFFKKVEYTKNVNPNWSVNVKTSANMKAPQSLASSNSAQARENKDFVRPKLVTIIRSGVKPRKAVRVLLNKKTAHSFEQVLTDITEAIKLETGVVKKLYTLDGKQVTCLHDFFGDDDVFIACGPEKFRLAQDDFSLDENECRVMKGNPSAAAGPKASPTPQKTSAKSPGPMRRSKSPADSGNDQDANGTSSSQLSTPKSKQSPISTPTSPGSLRKHKVDLYLPLSLDDSDSLGDSM [Y259L], which “effect of a mutation on the interaction” value is on record?
Answer: Its value is “decreasing interaction”.

From IntAct's records for PubMed 33199366
